± gives the standard deviation of the averaged measurements.

For 116 sequences, protein stability index results are on record in the supplement of paper PMC10724198.
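Further: PSI is a weighted mean of sequencing reads over stability bins, variants kept only with over 10 reads, mCherry proximal and sfGFP distal, peptide attached via GGGS linker.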

This series deals with Saccharomyces cerevisiae. As to the kind of experiment: protein stability index of tFT-peptide fusion (C-terminal peptide) (PSI (0-1 scale)); higher = more stable (slower turnover). The following applies: genetic background: wild type; temperature: 30 C.
As for SSLQGSCPSKSL, the protein stability index was determined as 0.7 ± 0.044.

Sequence SSLTTCFLSFPP registered a protein stability index of 0.668 ± 0.066.

The sequence SSLVRFDSSAPL yielded a protein stability index of 0.665 ± 0.033.

SSNLLFCSIFYV: the protein stability index turned out to be 0.6181 ± 0.0021.

SSNRKLVRLASS came in with a protein stability index of 0.69 ± 0.084.

As for SSNSSFFIWGLV, the protein stability index is 0.7119 ± 0.00078.

The sequence SSPIRPFLPPGY returned a protein stability index of 0.6709 ± 0.0049.

With SSPLWCFRLVFF, the protein stability index is 0.583 ± 0.015.

In turn, SSPNPPRELGPY showed a protein stability index of 0.607 ± 0.055.

SSPPAPHGAHPP returned a protein stability index of 0.752 ± 0.0099.

Consider SSPPAPHLAPPP, for which the protein stability index is 0.703 ± 0.053.

Sequence SSPPPPALPEYQ gave a protein stability index of 0.699 ± 0.0082.

SSPRANAYASCP gave a protein stability index of 0.726 ± 0.16.

SSPSSFLTLLFI yielded a protein stability index of 0.621 ± 0.069.

Sequence SSRLVFFLPSLR yielded a protein stability index of 0.6966 ± 0.0022.

In the case of SSRPLYLFSALR, the protein stability index amounted to 0.689 ± 0.053.

In turn, SSRTFRFRPPTI gave a protein stability index of 0.702 ± 0.01.

SSRWSMEHMAAW: the protein stability index was determined as 0.715 ± 0.059.

SSSACNMPVVRL yielded a protein stability index of 0.705 ± 0.05.

For the sequence SSSCRPVSSAIV, the protein stability index was 0.651 ± 0.089.

With SSSLLFVLGPSW, the protein stability index is 0.715 ± 0.034.

Sequence SSSLRLCSCAGQ showed a protein stability index of 0.723 ± 0.049.

Sequence SSSRCPRLPLPS showed a protein stability index of 0.6358 ± 0.0012.

As to SSSVLPESFSPS, the protein stability index came to 0.687 ± 0.036.

Consider SSSYCHPSCVSC, for which the protein stability index was 0.661 ± 0.14.

For the sequence SSTALAFAPYLL, the protein stability index is 0.6894 ± 0.005.

The sequence SSTEYYDIRKIR registered a protein stability index of 0.675 ± 0.025.

As for SSTFPRPSLRPV, the protein stability index was 0.64 ± 0.091.

As for SSVRIGRNLYVW, the protein stability index stood at 0.754 ± 0.13.

Consider SSVRPHPAPPHT, for which the protein stability index was found to be 0.701 ± 0.01.

The sequence SSVSARHVPCSP yielded a protein stability index of 0.689 ± 0.027.

SSVSRIYTPSSL showed a protein stability index of 0.677 ± 0.12.

Regarding SSVYLRRSCDHD, the protein stability index amounted to 0.699 ± 0.017.

Consider SSWEMMLYRLTE, for which the protein stability index was found to be 0.693 ± 0.021.

Consider STCRCGGFRNGS, for which the protein stability index is 0.762 ± 0.068.

Turning to STEHAPDLKSER, the protein stability index came out at 0.695 ± 0.077.

As to STEIHIKLNAWT, the protein stability index stood at 0.687 ± 0.082.

In turn, STGRLQLGNCLT displayed a protein stability index of 0.635 ± 0.015.

STLSSRLSLPYR: the protein stability index was found to be 0.728 ± 0.07.

The sequence STPDIRYFPPWC came in with a protein stability index of 0.706 ± 0.027.

The sequence STPLPPLSLPLF displayed a protein stability index of 0.685 ± 0.016.

With STQDIRTTKRVA, the protein stability index was determined as 0.681 ± 0.077.

For STRTNPSYFTYQ, the protein stability index is 0.675 ± 0.013.

Regarding STTIRTPSGMFR, the protein stability index is 0.661 ± 0.0057.

For the sequence STTPASLLGHVF, the protein stability index was determined as 0.6441 ± 0.0061.

As for STVLGPPLGLGT, the protein stability index worked out at 0.69 ± 0.054.

On to STVPSLVAGATF, for which the protein stability index turned out to be 0.729 ± 0.11.

In the case of SVARGGGVVEWG, the protein stability index came out at 0.705 ± 0.13.

SVATFDLHAGEW: the protein stability index came to 0.75 ± 0.01.

SVAVTGSTLVLI had a protein stability index of 0.628 ± 0.036.

The sequence SVCLRASSCFRS gave a protein stability index of 0.648 ± 0.051.

SVCPQALNLPPH yielded a protein stability index of 0.723 ± 0.043.

For SVFSVVLSLSGS, the protein stability index was 0.706 ± 0.051.

As for SVGGILWLMLEG, the protein stability index was found to be 0.677 ± 0.044.

SVIFSRSFCCPS returned a protein stability index of 0.639 ± 0.11.

SVLCRIGAGCAM returned a protein stability index of 0.629 ± 0.018.

For the sequence SVLEGGRWGFTR, the protein stability index was 0.758 ± 0.038.

In turn, SVLFDIGFSCRF returned a protein stability index of 0.808 ± 0.026.

Turning to SVLLRPPLLFHP, the protein stability index was determined as 0.722 ± 0.019.

Sequence SVLPELHAVPLF had a protein stability index of 0.679 ± 0.008.

SVQWPITIEVWK: the protein stability index came to 0.631 ± 0.014.

Regarding SVRFPPTFTMTL, the protein stability index is 0.701 ± 0.042.

SVSNSRCGRLML: the protein stability index amounted to 0.71 ± 0.046.

For SVSPRAPPILPP, the protein stability index came to 0.723 ± 0.058.

The sequence SVSPRVSSLSPL returned a protein stability index of 0.671 ± 0.013.

Take SVSRTARELREV: the protein stability index turned out to be 0.65902 ± 0.00035.

As to SVVGRLVGGFRW, the protein stability index was determined as 0.706 ± 0.021.

In turn, SVVSFIRRRSFL registered a protein stability index of 0.8656 ± 0.0084.

For SVYLIRSLEALR, the protein stability index is 0.679 ± 0.019.

In turn, SWFCSWVVRFFR yielded a protein stability index of 0.691 ± 0.065.

Regarding SWLRPTCLDLYF, the protein stability index turned out to be 0.76 ± 0.029.

Turning to SWSRAAYKGPWG, the protein stability index was found to be 0.702 ± 0.015.

In the case of SWTGDGWMWRRR, the protein stability index was 0.658 ± 0.019.

Take SYESKPPLSWDS: the protein stability index was found to be 0.73 ± 0.11.

The sequence SYGIETRLKGKK returned a protein stability index of 0.63 ± 0.082.

Regarding SYKSLGLVEFRV, the protein stability index was 0.712 ± 0.054.

With SYSSRSCALRVI, the protein stability index amounted to 0.533 ± 0.043.

Sequence TAGAYSLSTGNH registered a protein stability index of 0.651 ± 0.024.

The sequence TALSPPVPTLPP displayed a protein stability index of 0.7 ± 0.013.

As for TARPDKDYPRLA, the protein stability index turned out to be 0.678 ± 0.013.

In turn, TARPPSPPSTRL gave a protein stability index of 0.732 ± 0.036.

In turn, TASLSPSHRFYS returned a protein stability index of 0.66863 ± 0.00061.

Turning to TATPQRQPHKSP, the protein stability index came out at 0.706 ± 0.013.

With TATRIPHTPIPL, the protein stability index came out at 0.732 ± 0.037.

Consider TAVIRASRFEEI, for which the protein stability index was determined as 0.672 ± 0.0055.

The sequence TAWVDSMVCMLL displayed a protein stability index of 0.71 ± 0.034.

Regarding TCDSGSEDNVAA, the protein stability index is 0.7053 ± 0.0032.

Consider TCERGGQIKCRV, for which the protein stability index was determined as 0.657 ± 0.058.

TCLWVCARGFGG returned a protein stability index of 0.693 ± 0.021.

Sequence TCNWQGASSIIG gave a protein stability index of 0.6765 ± 0.0033.

In the case of TDFAVTKDFTEI, the protein stability index came out at 0.683 ± 0.033.

As for TDTCLQDCLVFV, the protein stability index was determined as 0.546 ± 0.039.

The sequence TECGKVGGGGEA gave a protein stability index of 0.689 ± 0.062.

Turning to TECGVRRGLVGR, the protein stability index was 0.651 ± 0.025.

In turn, TEKTEAKNCNTK gave a protein stability index of 0.697 ± 0.0089.

TFLFARLSFCKH gave a protein stability index of 0.613 ± 0.0071.

In turn, TFRADGYFFGRR came in with a protein stability index of 0.637 ± 0.042.

The sequence TGCEVSINSCVE registered a protein stability index of 0.656 ± 0.046.

On to TGDFFGGLGTWS, for which the protein stability index worked out at 0.701 ± 0.016.

In the case of TGGESEPRDTIQ, the protein stability index was 0.701 ± 0.017.

For the sequence TGKQNRYVKKEK, the protein stability index is 0.6955 ± 0.0031.

TGLLLGLFGCML displayed a protein stability index of 0.648 ± 0.068.

The sequence TGLSFIRCLDFK had a protein stability index of 0.688 ± 0.055.

On to TGMRRLPGEVCV, for which the protein stability index is 0.581 ± 0.017.

TGQVLKYVVGSQ returned a protein stability index of 0.711 ± 0.055.

In the case of TGRLDFSIQYYR, the protein stability index worked out at 0.6986 ± 0.0069.

TGSIMYDLEVDK returned a protein stability index of 0.6795 ± 0.0039.

In turn, TGYEVAGWVNWC yielded a protein stability index of 0.711 ± 0.018.

Sequence THGFKQLTTPLD had a protein stability index of 0.676 ± 0.014.

In the case of TIHKRTLEGSYN, the protein stability index was 0.65 ± 0.048.

As for TILKKKNRRNKE, the protein stability index worked out at 0.697 ± 0.024.

For the sequence TILLNWSQVHME, the protein stability index was 0.7 ± 0.016.

As to TKKKQKIKKNNS, the protein stability index stood at 0.748 ± 0.042.

The sequence TKKKTINRTQKQ yielded a protein stability index of 0.713 ± 0.043.

For the sequence TKKKTKKKEQKE, the protein stability index was 0.6627 ± 0.0027.

In the case of TKKKTTNKIIKI, the protein stability index turned out to be 0.671 ± 0.054.
